# Laboratory results reported in patent publication US11655307B2, “Anti-doublecortin-like kinase 1 antibodies and methods of use” (The Board of Regents of the University of Oklahoma, priority 2017, dated 2023).
# “Also recorded” adds a separate entry of the source.
# T1: DCLK1 isoform 4 purified protein (Homo sapiens, UniProt O15075)
# T1 sequence (O15075 1-433 isoform O15075-4): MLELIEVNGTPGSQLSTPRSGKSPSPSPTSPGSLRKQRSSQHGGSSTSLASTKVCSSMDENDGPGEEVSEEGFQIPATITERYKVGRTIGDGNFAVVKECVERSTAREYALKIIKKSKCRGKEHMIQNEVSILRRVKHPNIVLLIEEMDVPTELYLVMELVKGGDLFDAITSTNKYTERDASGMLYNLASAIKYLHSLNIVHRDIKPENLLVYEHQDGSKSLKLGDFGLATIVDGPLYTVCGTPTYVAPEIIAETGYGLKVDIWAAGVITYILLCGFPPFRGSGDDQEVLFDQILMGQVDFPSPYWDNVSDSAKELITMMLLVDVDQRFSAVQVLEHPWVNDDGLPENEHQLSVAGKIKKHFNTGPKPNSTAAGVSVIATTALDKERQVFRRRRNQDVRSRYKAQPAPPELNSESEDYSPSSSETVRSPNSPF
# B1: CBT-15G: Anti-DCLK1 mouse monoclonal antibody, Immunoglobulin G213 species, raised against immunogen no. 8; VH SEQ ID NO:24, VL SEQ ID NO:26 (antibody, V domains shown)
# VH: EVQLQQSGTALARPGASVKMSCKASGYSFTSYWMHWVKQRPGQGLEWIGAIYPGKSDTSYNQKFKGKAKLTAVTSASTAYMELSSLTNEDSAVYYCTRYGKGAMDYWGQGTSVTVSS
# VL: DIVLTQSHKFMSTSVGDRVTITCKASQDVNTAVAWYQKKPGQSPKLLIYWASTRLTGVPDRFTGSGSGTDYTLTISSVQAEDLALYYCQQHYSTPYTFGGGTKLEIK
# modifications: HC variable AA sequence of CBT-15G; LC variable AA sequence of CBT-15G
# What was measured:
# [1] = tested on: Caki-2 cells overexpressing DCLK1; test: Proliferation/drug resistance assay (MTT), DCLK1-overexpressing cells; type: cell-based, human; conditions: increasing drug concentrations; FIG. 16-17
# Source text: This gBlock also contains a part of human DCLK1 isoform 1 sequence shared with isoform 2, with the addition of the unique DCLK1 isoform 2 C-terminal sequence (NCBI Reference Sequence: XM_005266592.2). The vector containing DCLK1 isoform 1 and the gBlock were digested with EcoRI and Scat Both digested vector and gBlock fragment were gel purified and DCLK1 isoform 2 was constructed by ligating the digested vector with the synthetic DNA fragment. The ligated cDNA product was confirmed by automatic sequencing. […] RCC cell line Caki-2 was infected with Lentivirus containing human DCLK1 cDNA sequence to overexpress DCLK1 Isoform 2/long-α (caki2-dsRed-DCLK1) or red fluorescent protein (RFP) cDNA as control (caki2-dsRed) and selected to 100% expression with puromycin.
# Cells (5000/well) were seeded into a 96-well tissue culture plate in quadruplicate. […] 48 or 72 h after incubation, 10 μL of MTT (RND Systems) was added to each well and cells were incubated at 37° C. for 4 h. […] In order to fully dissolve the precipitated MTT crystals, the plate was placed on a shaker at low speed for 1 min and a microplate reader was used to read the OD570 for each well.
# The high level of expression of vascular endothelial growth factor (VEGF) and its receptors in RCC supports its highly vascular nature making VEGF and its receptors therapeutic targets. […] Given the tight relationship between sternness and the response to targeted therapies and its importance in patient survival, we further investigated DCLK1's role in this process. Caki-2 cells overexpressing DCLK1 were seeded into 96-well plates, allowed to attach overnight, and then treated with increasing concentrations of sunitinib or sorafenib. Relative cell viability was then evaluated by MTT assay.
# The intracellular serine/threonine kinase mTOR is involved in a wide range of pathways and plays an essential role in cellular metabolism and cancer progression.
# [2] = target: T1, DCLK1 isoform 4 purified protein; test: Western blotting against purified DCLK1 protein; type: binding; conditions: FIG. 1
# Procedure: Lysates from ACHN or CAKI2 cells were subjected to Western blot analysis. The concentration of total proteins was determined by BCA protein assay (Pierce, Rockford, Ill.). 40 μg of protein lysates were size separated on a 4%-20% SDS polyacrylamide gel and transferred onto a PVDF membrane. The membrane was blocked in 1% caseine for 30 minutes and probed with primary antibody α-DCLK1 (ABCAM, ab31704), HIF-1α (ABCAM, ab2185), Vimentin (Santa Cruz, S.C.-7557), ALDH1A1 (ABCAM, ab52492), β-Actin (ABCAM, ab8226) overnight at 4° C. The membrane was then washed 3 times with TBST and probed with species-appropriate secondary antibody (cw800-conjugated) for 30 mins at room temperature protected from light. Finally, proteins were detected using a LICOR Odyssey Infrared Imager and density quantification was performed in Image Studio Lite (LICOR) where appropriate.
# The resulting monoclonal antibodies produced from this screening process included an Immunoglobulin A species (CBT-15A) and an Immunoglobulin G213 species (CBT-15G). Following purification of the resulting antibodies, their affinity for DCLK1 was confirmed by Western blotting against DCLK1 isoform 4 purified protein (FIG. 1). […] The ability of these antibodies to bind extracellular DCLK1 was further apparent in FACS sorting experiments. […]
# ACHN cells = test: In vitro PBMC-killing assay (Caspase-3/7 Glo), renal cancer cells; type: cell-based; conditions: antibody pretreatment, then 72 h co-culture with human PBMC; FIG. 24A
# Procedure: ACHN cells were seeded into a 96-well plate at 5×10^4 cells per well and allowed to attach overnight at 37° C. CBT-15 mAB or isotype control mAB were added to the ACHN wells at concentrations of 100 μg/mL in quadruplicate and incubated at 37° C. for 72 h. After mAB treatment, the media was replaced and 1.25×10^5 primary human PBMC cells (ATCC) were co-incubated with the ACHN cells for 72 h. Finally, luminescent CaspaseGlo® 3/7 activity (Promega) assay was performed according to the manufacturer's protocol as a surrogate measure of apoptosis.
# (§1) To further assess the functional relevance of these findings we seeded ACHN renal and AsPC-1 pancreatic cancer cells into 96 wells and subjected them to antibody-dependent cell-mediated cytotoxicity assay. Briefly, 10^4 cancer cells were seeded into each well after 48 hours pretreatment with either isotype control or CBT-15 monoclonal antibody. Human peripheral blood […] were then seeded into each well at 10^5 cells per well and co-cultured for 72 h. After 72 h Caspase-3/7 Glo assay was performed to assess apoptosis.
# [3] = tested on: AsPC-1 pancreatic cancer cells; test: In vitro PBMC-killing assay (Caspase-3/7 Glo), pancreatic cancer cells; type: cell-based; conditions: 48 h antibody pretreatment, then 72 h co-culture with human PBMC; FIG. 24B
# Procedure: as §1
# [4] = tested on: pancreatic cancer SW1990 tumor xenograft; test: SW1990 xenograft tumor study; type: in vivo, mice; conditions: 25 mg/kg biweekly
# Procedure: 0.5×10^6 cells were injected into the flanks of 8 week-old athymic nude mice and the resulting tumors were allowed to grow to an average volume 100 mm^3. Upon reaching this volume we began delivering CBT-15 or isotype control mAB at 25 mg/kg biweekly. Tumor volume measurements were taken approximately every other day. At the end of 4 weeks from the start of injections animals were culled and tumors were excised, measured, and weighed.
molecule,measurement,setting,value
CNC(=O)c1cc(Oc2ccc(NC(=O)Nc3ccc(Cl)c(C(F)(F)F)c3)cc2)ccn1 [sorafenib],"sensitivity of DCLK1-overexpressing cells to the drug compared to dsRed vector control cells (relative cell viability, MTT)",[1],did not elicit significant resistance; also recorded: not resistant
CO[C@H]1C[C@@H]2CC[C@@H](C)[C@@](O)(O2)C(=O)C(=O)N2CCCC[C@H]2C(=O)O[C@H]([C@H](C)C[C@@H]2CC[C@@H](OCCO)[C@H](OC)C2)CC(=O)[C@H](C)/C=C(\C)[C@@H](O)[C@@H](OC)C(=O)[C@H](C)C[C@H](C)/C=C/C=C/C=C/1C [everolimus],"sensitivity of DCLK1-overexpressing cells to the drug compared to dsRed vector control cells (relative cell viability, MTT)",[1],significantly decreases sensitivity
CO[C@H]1C[C@@H]2CC[C@@H](C)[C@@](O)(O2)C(=O)C(=O)N2CCCC[C@H]2C(=O)O[C@H]([C@H](C)C[C@@H]2CC[C@@H](OC(=O)C(C)(CO)CO)[C@H](OC)C2)CC(=O)[C@H](C)/C=C(\C)[C@@H](O)[C@@H](OC)C(=O)[C@H](C)C[C@H](C)/C=C/C=C/C=C/1C [temsirolimus],"sensitivity of DCLK1-overexpressing cells to the drug compared to dsRed vector control cells (relative cell viability, MTT)",[1],significantly decreases sensitivity
B1,affinity for DCLK1 by Western blot (detection of purified DCLK1 protein),[2],confirmed; also recorded: detect
same,"PBMC mediated apoptosis, Caspase-3/7 activity relative to isotype control",ACHN cells,can sensitize
same,"immune cell mediated cell killing, Caspase-3/7 activity relative to isotype control",[3],significantly increased; also recorded: increase
same,excised tumor volume vs isotype mAB,"[4]; end of treatment, FIG. 29, 32",significant decrease
same,excised tumor weight vs isotype mAB,"[4]; end of treatment, FIG. 30, 33",decrease
same,xenograft tumor growth (tumor volume over time) vs isotype mAB,"[4]; athymic nude mice, 4 weeks, FIG. 28, 31, 25 mg/kg",strongly inhibited; also recorded: substantially reduced
